Among the data in article PMC7203112, “Structural basis for the complex DNA binding behavior of the plant stem cell regulator WUSCHEL” are binding result and Kd values, retold here.

Changes are numbered by the printed parent chain.

In data set [1] the target is T1, WUS-HD T35R (Arabidopsis thaliana, UniProt Q9SB92 34-103, T35R).
T1 sequence: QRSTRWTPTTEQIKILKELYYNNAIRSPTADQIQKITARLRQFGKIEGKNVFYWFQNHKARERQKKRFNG
Description: EMSA; MST: 20 mM Tris-HCl pH 8.0, 75 mM NaCl, 10 mM MgCl2, 0.05% Tween-20, 20 C, 50 nM YFP-WUS; ITC: same without Tween, 20 C; EMSA: 10 mM Tris-HCl pH 8.0, 75 mM NaCl, 50 ug/ml poly(dI-dC), 1 mM EDTA, 1 mM DTT, 5% glycerol. The conditions noted are these: protein: recombinant; tags: none after TEV cleavage; label: Cy5; blunt.

In the next data set the target is T2, MBP-WUS-FL (Arabidopsis thaliana, UniProt Q9SB92 1-292).
T2 sequence: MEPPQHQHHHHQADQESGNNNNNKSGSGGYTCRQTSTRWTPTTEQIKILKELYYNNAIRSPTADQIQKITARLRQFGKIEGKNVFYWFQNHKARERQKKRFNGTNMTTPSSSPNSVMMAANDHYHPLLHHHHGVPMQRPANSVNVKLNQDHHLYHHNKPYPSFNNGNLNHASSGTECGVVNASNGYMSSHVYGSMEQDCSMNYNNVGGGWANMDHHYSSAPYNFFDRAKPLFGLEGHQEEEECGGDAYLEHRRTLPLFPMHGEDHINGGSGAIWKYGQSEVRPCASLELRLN
The data set is described as above. Particulars: protein: recombinant; tags: N-terminal His6-MBP; chain copies: 2; label: Cy5; blunt.

For data set [2], the target named is T3, WUS-HD S36R (Arabidopsis thaliana, UniProt Q9SB92 34-103, S36R).
T3 sequence: T1 sequence with R2T, S3R
The description is as above. Particulars: protein: recombinant; tags: none after TEV cleavage; label: Cy5; blunt.

The target in a further data set is T4, WUS-HD F101A (Arabidopsis thaliana, UniProt Q9SB92 34-103, F101A).
T4 sequence: T1 sequence with R2T, F68A
Description: EMSA; predominantly monomer; probe called 2xTGAA; MST: 20 mM Tris-HCl pH 8.0, 75 mM NaCl, 10 mM MgCl2, 0.05% Tween-20, 20 C, 50 nM YFP-WUS; ITC: same without Tween, 20 C; EMSA: 10 mM Tris-HCl pH 8.0, 75 mM NaCl, 50 ug/ml poly(dI-dC), 1 mM EDTA, 1 mM DTT, 5% glycerol. The conditions noted are these: protein: recombinant; tags: none after TEV cleavage; label: Cy5; blunt. For orientation: In EMSA bound probe runs differently from free probe, usually more slowly.

In another data set the target is T5, WUS-HD R94K (Arabidopsis thaliana, UniProt Q9SB92 34-103, R94K).
T5 sequence: T1 sequence with R2T, R61K
Description: EMSA; like wt; MST: 20 mM Tris-HCl pH 8.0, 75 mM NaCl, 10 mM MgCl2, 0.05% Tween-20, 20 C, 50 nM YFP-WUS; ITC: same without Tween, 20 C; EMSA: 10 mM Tris-HCl pH 8.0, 75 mM NaCl, 50 ug/ml poly(dI-dC), 1 mM EDTA, 1 mM DTT, 5% glycerol. The conditions noted are these: protein: recombinant; tags: none after TEV cleavage; label: Cy5; blunt.

Data set [3] concerns the target T1, WUS-HD T35R. Briefly: EMSA; predominantly monomer; MST: 20 mM Tris-HCl pH 8.0, 75 mM NaCl, 10 mM MgCl2, 0.05% Tween-20, 20 C, 50 nM YFP-WUS; ITC: same without Tween, 20 C; EMSA: 10 mM Tris-HCl pH 8.0, 75 mM NaCl, 50 ug/ml poly(dI-dC), 1 mM EDTA, 1 mM DTT, 5% glycerol. The conditions noted are these: protein: recombinant; tags: none after TEV cleavage; label: Cy5; blunt.

In data set [4] the target is T3, WUS-HD S36R. The data set is described as above. Particulars: protein: recombinant; tags: none after TEV cleavage; label: Cy5; blunt.
The target in another data set is T6, WUS-HD RRK (Arabidopsis thaliana, UniProt Q9SB92 34-103, T35R;S36R;R94K).
T6 sequence: T1 sequence with S3R, R61K
Briefly: EMSA; similar to T35R and S36R; MST: 20 mM Tris-HCl pH 8.0, 75 mM NaCl, 10 mM MgCl2, 0.05% Tween-20, 20 C, 50 nM YFP-WUS; ITC: same without Tween, 20 C; EMSA: 10 mM Tris-HCl pH 8.0, 75 mM NaCl, 50 ug/ml poly(dI-dC), 1 mM EDTA, 1 mM DTT, 5% glycerol. Particulars: protein: recombinant; tags: none after TEV cleavage; label: Cy5; blunt.

B1: f_TGAA (dsDNA)
DNA 1: CATCGTCGTTCATTCAATGGG
DNA 2: CCCATTGAATGAACGACGATG
Take B1: the binding result with WUS-HD T35R [1], with WUS-HD S36R [2] and with WUS-HD F101A was “binds” each time. For the same molecule, the Kd (in general, the equilibrium constant for the complex coming apart) with MBP-WUS-FL is 0.36 ± 0.06 µM.

B2: f_TAAT (dsDNA)
DNA 1: CAATGTGTTAATGGGTTGTT
DNA 2: AACAACCCATTAACACATTG
As for B2, the dissociation constant (Kd) with MBP-WUS-FL is 3.15 ± 0.26 µM. The binding result with WUS-HD R94K, with WUS-HD T35R [3], in the data set with WUS-HD S36R [4] and with WUS-HD RRK was “binds” in each case.
